Experimental data taken from the Human Domainome abundance scans (Beltran et al. 2025).
± gives the uncertainty stated by the source.

B1: Far upstream element-binding protein 1, residues 98 to 169; numbered along this chain, Q96AE4 (parent)
chain: RSVMTEEYKVPDGMVGFIIGRGGEQISRIQQESGCKIQIAPDSGGLPERSCMLTGTPESVQSAKRLLDQIVE

Variants of: B1
Assay: abundance fitness (aPCA) (normalised: wild type 0, dead -1); higher = more abundant; growth selection in yeast, the domain comes from the species named
Conditions: Homo sapiens

Variant | abundance fitness
RSVMTEEYKVPDGMVGFIIGRGGEQISRIQQESGCKIQIAPDCGGLPERSCMLTGTPESVQSAKRLLDQIVE | -0.131 ± 0.04
RSVMTEEYKVPDGMVGFIIGRGGEQISRIQQESGCKIQIAPDAGGLPERSCMLTGTPESVQSAKRLLDQIVE | -0.016 ± 0.03
RSVMTEEYKVPDGMVGFIIGRGGEQISRIQQESGCKIQIAPDWGGLPERSCMLTGTPESVQSAKRLLDQIVE | -0.142 ± 0.037
RSVMTEEYKVPDGMVGFIIGRGGEQISRIQQESGCKIQIAPDLGGLPERSCMLTGTPESVQSAKRLLDQIVE | -0.098 ± 0.03
RSVMTEEYKVPDGMVGFIIGRGGEQISRIQQESGCKIQIAPDPGGLPERSCMLTGTPESVQSAKRLLDQIVE | -0.234 ± 0.033
RSVMTEEYKVPDGMVGFIIGRGGEQISRIQQESGCKIQIAPDGGGLPERSCMLTGTPESVQSAKRLLDQIVE | -0.066 ± 0.026
RSVMTEEYKVPDGMVGFIIGRGGEQISRIQQESGCKIQIAPDYGGLPERSCMLTGTPESVQSAKRLLDQIVE | -0.124 ± 0.043
RSVMTEEYKVPDGMVGFIIGRGGEQISRIQQESGCKIQIAPDNGGLPERSCMLTGTPESVQSAKRLLDQIVE | -0.043 ± 0.045
RSVMTEEYKVPDGMVGFIIGRGGEQISRIQQESGCKIQIAPDKGGLPERSCMLTGTPESVQSAKRLLDQIVE | -0.091 ± 0.037
RSVMTEEYKVPDGMVGFIIGRGGEQISRIQQESGCKIQIAPDRGGLPERSCMLTGTPESVQSAKRLLDQIVE | -0.086 ± 0.027
RSVMTEEYKVPDGMVGFIIGRGGEQISRIQQESGCKIQIAPDVGGLPERSCMLTGTPESVQSAKRLLDQIVE | -0.068 ± 0.029
RSVMTEEYKVPDGMVGFIIGRGGEQISRIQQESGCKIQIAPDDGGLPERSCMLTGTPESVQSAKRLLDQIVE | -0.042 ± 0.047
RSVMTEEYKVPDGMVGFIIGRGGEQISRIQQESGCKIQIAPDTGGLPERSCMLTGTPESVQSAKRLLDQIVE | -0.037 ± 0.032
RSVMTEEYKVPDGMVGFIIGRGGEQISRIQQESGCKIQIAPDIGGLPERSCMLTGTPESVQSAKRLLDQIVE | -0.024 ± 0.044
RSVMTEEYKVPDGMVGFIIGRGGEQISRIQQESGCKIQIAPDMGGLPERSCMLTGTPESVQSAKRLLDQIVE | -0.087 ± 0.035
RSVMTEEYKVPDGMVGFIIGRGGEQISRIQQESGCKIQIAPDSHGLPERSCMLTGTPESVQSAKRLLDQIVE | -0.092 ± 0.035
RSVMTEEYKVPDGMVGFIIGRGGEQISRIQQESGCKIQIAPDSDGLPERSCMLTGTPESVQSAKRLLDQIVE | -0.017 ± 0.032
RSVMTEEYKVPDGMVGFIIGRGGEQISRIQQESGCKIQIAPDSFGLPERSCMLTGTPESVQSAKRLLDQIVE | -0.107 ± 0.035
RSVMTEEYKVPDGMVGFIIGRGGEQISRIQQESGCKIQIAPDSNGLPERSCMLTGTPESVQSAKRLLDQIVE | -0.024 ± 0.033

Variant | abundance fitness
RSVMTEEYKVPDGMVGFIIGRGGEQISRIQQESGCKIQIAPDSMGLPERSCMLTGTPESVQSAKRLLDQIVE | -0.012 ± 0.033
RSVMTEEYKVPDGMVGFIIGRGGEQISRIQQESGCKIQIAPDSCGLPERSCMLTGTPESVQSAKRLLDQIVE | -0.019 ± 0.036
RSVMTEEYKVPDGMVGFIIGRGGEQISRIQQESGCKIQIAPDSPGLPERSCMLTGTPESVQSAKRLLDQIVE | -0.061 ± 0.03
RSVMTEEYKVPDGMVGFIIGRGGEQISRIQQESGCKIQIAPDSYGLPERSCMLTGTPESVQSAKRLLDQIVE | -0.037 ± 0.034
RSVMTEEYKVPDGMVGFIIGRGGEQISRIQQESGCKIQIAPDSSGLPERSCMLTGTPESVQSAKRLLDQIVE | -0.003 ± 0.025
RSVMTEEYKVPDGMVGFIIGRGGEQISRIQQESGCKIQIAPDSWGLPERSCMLTGTPESVQSAKRLLDQIVE | -0.125 ± 0.033
RSVMTEEYKVPDGMVGFIIGRGGEQISRIQQESGCKIQIAPDSQGLPERSCMLTGTPESVQSAKRLLDQIVE | -0.023 ± 0.034
RSVMTEEYKVPDGMVGFIIGRGGEQISRIQQESGCKIQIAPDSLGLPERSCMLTGTPESVQSAKRLLDQIVE | -0.05 ± 0.025
RSVMTEEYKVPDGMVGFIIGRGGEQISRIQQESGCKIQIAPDSEGLPERSCMLTGTPESVQSAKRLLDQIVE | -0.004 ± 0.031
RSVMTEEYKVPDGMVGFIIGRGGEQISRIQQESGCKIQIAPDSIGLPERSCMLTGTPESVQSAKRLLDQIVE | -0.064 ± 0.033
RSVMTEEYKVPDGMVGFIIGRGGEQISRIQQESGCKIQIAPDSTGLPERSCMLTGTPESVQSAKRLLDQIVE | 0.002 ± 0.028
RSVMTEEYKVPDGMVGFIIGRGGEQISRIQQESGCKIQIAPDSRGLPERSCMLTGTPESVQSAKRLLDQIVE | -0.015 ± 0.024
RSVMTEEYKVPDGMVGFIIGRGGEQISRIQQESGCKIQIAPDSAGLPERSCMLTGTPESVQSAKRLLDQIVE | -0.013 ± 0.026
RSVMTEEYKVPDGMVGFIIGRGGEQISRIQQESGCKIQIAMDSGGLPERSCMLTGTPESVQSAKRLLDQIVE | -0.064 ± 0.039
RSVMTEEYKVPDGMVGFIIGRGGEQISRIQQESGCKIQIAKDSGGLPERSCMLTGTPESVQSAKRLLDQIVE | -0.04 ± 0.037
RSVMTEEYKVPDGMVGFIIGRGGEQISRIQQESGCKIQIANDSGGLPERSCMLTGTPESVQSAKRLLDQIVE | -0.051 ± 0.047
RSVMTEEYKVPDGMVGFIIGRGGEQISRIQQESGCKIQIAQDSGGLPERSCMLTGTPESVQSAKRLLDQIVE | -0.031 ± 0.035
RSVMTEEYKVPDGMVGFIIGRGGEQISRIQQESGCKIQIARDSGGLPERSCMLTGTPESVQSAKRLLDQIVE | -0.031 ± 0.023
